Experimental data as given in the DeepSol protein solubility set.

Assay: soluble on expression in E. coli; label from the status in PepcDB or PDB records

| Sequence | soluble on expression in E. coli |
| --- | --- |
| MLQPPTLTPNANGEEFRGSVSTDRSSASPSNIDEIMEDDVNQKDEDEDLNLVDRVSKLETNFVFIQHQLSSIMNHLHAPQCKCTTCSKVNQPGAEEQKNDTSVLSQLFPNASDQQLKTLLDLSKMNKLPSQVVHKDQQNGSSFLPSANKTSENPKPIELKPLKLGQGYQMANGGGGGKIHTERLSEPARKQSRKVGFPPPVASYYQRKESSNPLVPPTPLSSIPNLITNSNAVSANTSTASPGPSSEGSGDDHLEAPNEVAHMHSSTVPATPTTPGANLFTQSMVDMLKLNAQNAAHSTGSPGFLRGRGRGRPKLIGDELDADLVDYMVSLKNSDPHGGHFTASQALHMARQYILERAPGLLEEHGGHVKLKLTWAMKLVSRIGERQREIELGLPAGTLSNMGRNLTNIPAGGNFMADMMAQNIFSQHMMMVNQQLEGGSPPASSSSTATTSTATKTVKQESKNGHQNEENLNVKQEASTMPEIINIKELNLPFLNNFLAELNDNNSGLIDGEIGAAGPSMAALFAPNA | not soluble |
| GSHMQPMQAMKIERGTILTQPGVFGVFTMFKLRPDWNKVPAMERKGAAEEVKKLIEKHKDNVLVDLYLTRGLETNSDFFFRINAYDLAKAQTFMREFRSTTIGKNADVFETLVGVTKPLNYISKDKSPGLNAGLSSATYSGPAPRYVIVIPVKKNAEWWNMSPEERLKEMEVHTTPTLAYLVNVKRKLYHSTGLDDTDFITYFETDDLTAFNNLMLSLAQVKENKFHVRWGSPTTLGTIHSPEDVIKALAD | soluble |
| MVLLSVFLATGCTDTEQQPDTTTITEPDTTTTAQSETSKLIVSTTTSLEDTGLLEEIEAAFEDKYPGVDVLVISGGTGIAIQYGERGDADILLTHDKSREEEFVNNGFGTNRTEIAYNYFWIVGPENDPAGINGLNATEAFTRIMEEGQNDSDQVKFASRGDDSGTHAREKKIWESTGVSYGEINSSGEWYIESGRGMGETLLLSNEQNAYTLTDSGTFLAYTNEGRIQIVPIVTAGDELLNVYAAMPVNPEKHPNVNYEGAQNFVDFLVSSEGQEIIGNFGREQYGEPLFTPISEGLPS | not soluble |
| MTNDVEMKSETEELPPFPTVHILQVVKDAQQQHGLRHGDYARYRKYCAAKLERMRKALKFTNSHNCQKKRKAKFVKKWLSVESVQNVQFLNFGIFESERRYAEAMIDKITLEDNPEKSRKKFSMINSLRKAVLHATNLEKIVQESERFDAPTKLEAQAYAAWMRGMCSFESRNWQKASESLKLAKTVYEKLAEATNNTTLSSIFKGRCREIQPQLRLCEFNIAESPGAVGTMTELMELRMQMGEGGDSSVDKLISEMRASATSAEVVTIEWGGAKSTVDDEKAKQVVQEWKQTEVELAQCQTPKEKMALFEKATADTRDAIDRISDIIRRKSSENADTTVLQSIKAYLEFLKMNGTASRYLAIIDNTKSEKKSKPQDLLRLYDSVIEIYKEVAEIPGADHDKNLIQAFEVKVEYYRAFRCFYMASSYSALHKYSEAAALFDRTVSRVQDAEGKLKKLKSSSFITNETQSSLNELRSEVESAKVTVRAARLASAAGDVKTDSELAKIIDKRPLLETVNEWRQWDVRNSLKDKKTIPVASLPPAFIPMPNKPIFFDLANFHLTMPNVDDRLEKLQKDRDATPKKAAKGSSAAAASSKTSNQEEEEQQGLTGMLSGWKKSFWGNK | not soluble |
| HGDHMHNHDTKMDTMSKDMMSMEKIVVPVQQLDPQNGNKDVGTVEITESAYGLVFTPKLHDLAHGLHGFHIHEKPSCEPKEKDGKLVAGLGAGGHWDPKQTQKHGYPWSDDAHMGDLPALFVMHDGSATTPVLAPRLKKLAEVKGHSLMIHAGGDNHSDHPAPLGGGGPRMACGVIK | soluble |
| GPGSMLAAVAVPSSSSSTAPGTNTAVSDYFLQKIHELRATQKRTLDNFERLEAQRNDLNRRVRHLKEEVQMLQESGSLVVDVVRVMGKNKVLVKAGSGQGKMVVDVDKSVDFKDLTPNARVALRSGTSAIHYILPTKVDPLVSLMKVEKAGKESTYDEIGGLSRQVKEIKEVIELPVKHPKLFEALGIEQPKGVLLYGPPGTGKTLLARAVAHHTDCTFIRVSGAELVQKYIGEGARMVRELFVMAREHSPSIIFMDEIDSIGSSRLESGENGDSEVQRTMLELLNQLDGFEASKNIKVIMATNRMDILDEALLRPGRIDRKIEFPAPDEAARFEILKIHSRKMNLTRGIDLKDIAKKTSNCSGAELKAVCTEAGMFALRERRVHITHEDFVLAVAKVMHKDQDKNVSLKKMWK | not soluble |
| MSKLFSEYKLKDVTLKNRIVMSPMCMYSVENKDGIATDFHFAHYVSRAAGGTGLVILEATAVQEVGRISEFDLGLWNDEQVPALKKLVGGLHYHGAKAGIQLAHAGRKAVLPGEIVAPSAIAFDEKSDKPVELTKEAIKEVVADFKRAAYRAKEAGFDVIEIHAAHGYLIHQFLSPITNRREDNYGGPAGNRYKILSDIIKAVKEVWDGPIIVRVSATDYAHGGLQLEDHIPFAKWMKADGVELIDVSTGGLVNVAPPVFPGYQVPFADEIRRGAGIATGALGLITRGEQAEEILCNERADLIIVGRELLRNPYFAKDAAKQLGETIEAPKQYSRAWK | not soluble |
| MERYVWARFFWQQARDKRGVPRRHVCDTARNNNRRPETGTAFTALCSTTVTPHPDDDDTVKGTCFAPACQVCTILLARAMNWNDGELGQLVQTFHWTHADIALLATALDITRSEARRLLTAWTDAAK | not soluble |
| MSLRIAVDAMGGDHAPKAVIDGVIKGIEAFDDLHITLVGDKTTIESHLTTTSDRITVLHADEVIEPTDEPVRAVRRKKNSSMVLMAQEVAENRADACISAGNTGALMTAGLFIVGRIKGIDRPALAPTLPTVSGDGFLLLDVGANVDAKPEHLVQYAIMGSVYSQQVRGVTSPRVGLLNVGTEDKKGNELTKQTFQILKETANINFIGNVEARDLLDDVADVVVTDGFTGNVTLKTLEGSALSIFKMMRDVMTSTLTSKLAAAVLKPKLKEMKMKMEYSNYGGASLFGLKAPVIKAHGSSDSNAVFRAIRQAREMVSQNVAALIQEEVKEEKTDEEGGSHHHHHH | soluble |
| MSETFTSVSQEEAGFRERARLSFDLDADICVIGAGLAGLSIALEAARLGASVAVLEGRHIGWNASGNQLGTVMPGFALPLTDLIERIGFEDARELWTLSKEGAEFVRANATEENMPGIAPSDGVLEVSNVDTGDRLISRLQMLHEDFDTEVEGWQVDRVRDVLKTDRYFHGVYYPKAFQVDGRKYVHGLAALARRAGARIFEDTPVVSIDHSGIRKRIVTPSARLRATHIVLAGNIHLGAPLRRLSETLLPVWRYAGITAPLGERVHEIIAFKGSVMDSDGVDHFRIVDGDRLMWESPETTWAARPQRFAGGVRRRIRSIFPQFGNVEIADMFGGATGQTVHGMPQIGQLRKGLWVASGFGRQGMNTSAMAGQMIARSILWGDERWRLFSPFELVWAGGATGRVAGQLVGIWGRASSAAAGTLARYRERARVKDREREARLAEANRAAGTGPRRPPPGVRPRPAPPPKPATEALEPASHDDSVSQLEHHHHHH | not soluble |
| MYFEGYGYRGSTFEQTYRCYPASFIDKPQLETGDKIIMPPSALDRLASLHIEYPMLFEVHNAAAERTSHCGVLEFIAEEGMIYMPYWMMQNLLLTEGDMVFIKNANLPKGTYVKLQPHTTDFLDISNPKAILEKTLRNYSCLTTGDSIMVAYNNKKYYIDIVETKPSNAISIIETDCEVDFAPPLDYKEPERQKAAVPPSTAPTAEEAAEEEPKFIPFTGPGRRLDGKAPKDKDVSASSPAKRQANATNSVQPSTASTSQSSSSRKTTEKLVFGPGGNRTSKETEKVPEKEPKEDPKKDEPKFSAFTGRKYSLKG | soluble |
| MGFNNLVSLAALIEKVFPIRYTPAGIPVLDIILKHESWQEENGQQCLVQLEIPARILGRQAEEWQYRQGVYVHVEGFLAQKSRRSLMPMLRIQNIQEYKG | not soluble |
| MAHHHHHHMIIEKGEPLNKEIIDHVLDHVTEFPTPTMVSVGDGKADCIVLENFLTHEECDQLVAACEKVGYTFWLQKNHHDADGEATCDSGSKAVRVVDTIEANFPHLSAKLYERIARVVSLKPKCFSEDMPNAEELFERELAGTWVPHALSENLLFGRYHPGGHFMPHVDGATILDLNTRSFYTLLIYLNDCLHGGETFIFAGEQCNVMYLDEKENQYRGNATQRVGAVYPKKGSAAFFYYNLLHEGAPVLEGHKYICRADLLYHRTPTIFTSEADEKAFKAYQEARLAESHGDAERACQLFQRVRKLSKGVASIFQIE | soluble |
